# Laboratory results: the DeepSol protein solubility set
# Assay: soluble on expression in E. coli; label from the status in PepcDB or PDB records
row,Sequence,soluble on expression in E. coli
1,MGSDKIHHHHHHMVATLDDTKRNAIAVKLASIKALQQLVIENEQSLLREGLDAEIADRIRNFLKDDEKNLGVLETVIGQYGIQAEPKKNVTQFIEKARELFKGSELSLYEKVSQHELLKHQLVMSGLIVHKAAQKVGADVLLAIGPLNTINFENRAHQEQLKGILEILGVREFTGQDADQGIWARVQDAMAAVSGVVGSAVTQTSDKSDLNIQDVIRLDHNKVNTLFTELLQSDNPQKIQEYFGQIYKDLTAHAEAEEEVVYPRVRPFYGQDNTQELFDEQAEMKRVLEQIKAISPSSSEFKDRVRQLMEAVGDHIRQEESTMFAAIRNNLSSDQSEQLATEFKAAKTRIQEKLGVVSESNA,not soluble
2,MGSDKIHHHHHHMKGVTLRGLEVFEALSRTGSVAQASTLTGLSQPAVSQQLRNLEQALGTDLVDHGRRPMVLTPAGRAFLPRAETVLSQLRLAQSELTVMDLTHLSTLSMGLIDDFDNDLTPRLATLLADSLTKCRFKLITAPSHEISEAMKARRLHIAVAATSGEVHDGIIEYPLVRDPFILVAPRGVVSKGGDMLASLQGLPLLRYAREQLIGRQIEAHLARQKLDFEERFEIGSHLALMAMVARRLGWAVTTPLGFMRAERFHDEVEAFALPFAAFSRRISLFAGADWADRVPRDVAETMRRLVQSQIIDPAVARLPWLGGELRVIES,not soluble
3,MQFNNKPLIGVVHLPPLPGSPGYKGELDEVIDRAISDAAKYQEAGFDAIILENYGDFPYSKTVGKETVSAFSVVANEVKREIALPLGINVLRNDCIAAYSIAYSIKADFIRVNVLTGVAFTDQGIVEGCARELAELRTRLPSRIDVLADVHVKHATHFSNFENALLDTIERGGADAVIVTGSRTGSEVDIQELITAKRISPVPVLVGSGVNPRNIKLFWRYSDGFIVGTWVKEGGRTINEVSIERATKLAKLVKSLREGLEHHHHHH,not soluble
4,MGSDKIHHHHHHMAIISEHHIFLSDDANVGLQTRLKDAITRAIWDGRFAPGDRLPATRALARHLGISRITVSLAYDALLSTGYIVSIARSGYFVASDAPTRMEIVTPGKGDARDRLDWAARLGPVPPALGAQATPADWRRFRYPFIFGEPDVARFPVDDWRDCVRRGLGKRHFEQVADDASDRDDPFLVEQIVRRSVSGRGVAATVDEVLVTAGAQNALWLMVQVLFGGQGGEVAMEDPGYPELRNLLRQQRLTIHPVPVDRDGLKVDRIPEGVRAVFVTPSHQAPTGATMSMARRQALLERAEAEDFVVIEDDYDYEMSYASPSLPALKSLDQRGRVIYIGSFSKSIFPGLRLGYLTADARVVEHARAIRTLSERHPPGLTQRTVAYFLSEGHYNSHSRRMRMRMARRNEVLREALAEHGLTPALRRATGGTTLWLLGPEDLDADALAVSLRDKSVLIEAGSAFYAGGDAPRNRVRLGFATIETARIADGVALIAEAIREQAPTPR,not soluble
5,MSLEDQALFGYARYGKVDDVVYPSVIASGNGINYGDSDIEILGDRIPRQILYPAKIKQEILETDKLVIIPNGAELVRKPKDLVRIIMDIHSRYGFSKLIMISGISDPYSIPALVYLGISFFDSSILEMEGKMGYRFTPFGIEKADHDVSSENAIFISDMMHIIQRSISDGTLRELIEKAVISSKAAEMVRIADYSYYQDFESVFPVRTPYIKANTIEDLYRPDLIRYRNYISESYVKPDADIALILPCSAKKPYSRSKSHQKVIGALGNLRRFIHEVIVTSPIGIVPRDLEETYPARFYDIPVIGLWYEDEKIMMKRMMSSYMGRNRYRKVIAFIPEDLDFITEAIPYPHEVIEFKSSNLQRLREVIQREIAGGKAVNQKVAKYNSILRYQFGEWILPLVSGYTIRRNYNQDMIVKDGKILFVYNENLGKFTINKASADMFIKNGKFLVEIDDFKPTSNVYAMGVVDATEDIRQEDEVVLVHSGEVRGVGIAKMPARAMIELKKGIAVKVREGHHHHHH,soluble
6,MAADESYPSVKERAFFQGLPFDYAVVFDNALIDRLFSRLRQERALVEDGLLARPDHRPWRLGALITEADTLDRRLSEQIRCLSGQSLPVASIALVTATTEAREAVSLWASVTCPPNVVVTPDPRAWMAEADLDLVVVFAPGALAHPGLFAALGRALQRDGADFAVWNHLLVRRRAEAPGQDITYLRCPDPTRQPVALAHMEAAGPAWAATPRLFETIKGDLGKALIGMARHPLSIALLRGKPKVVRLNEFLGACRVDSLGTPPWPRQSALVEAYGAALEDETFRLEIDPAHPTQPIRLTPRRRAHSIDIVINFRDKPELTLAAMGSIYAQTTTARVSLFLIDNQSTPAARAAIDAEAARAPAGIAVRVLSYDRPFNHSAQTNLGAAAGNGEALVFMSNDCALVDPGALDEMAAWALAPGVGTVGVRLETAEGRLACSGICALYPDHDFHPIVAEGFDQLGAGLNRETFANTFACACLARAVFRQAGPLDAIGFPIGLNDVDYCLRLRERGLRHLYLGAFLARHQALGSRPASDDGAQSAFLRQTYGHLLFDKEYMLEYDFLRQFTAAKLRQDIRSQRDKTTTVLEHHHHHH,not soluble
7,MNKTYMLDTCICSFIMREQPEAVLKRLEQAVLRGQRIVVSAITYSEMRFGATGPKASPRHVELVDAFCARLDAILPWDRAAVDATTEIKVALRMAGTPIGPNDTAIAGHAIAAGAVLVTNNTREFERVPGLVLEDWVR,not soluble
8,MKIRSPIVSVLGHVDHGKTTLLDHIRGSAVASREAGGITQHIGATEIPMDVIEGICGDFLKKFSIRETLPGLFFIDTPGHEAFTTLRKRGGALADLAILIVDINEGFKPQTQEALNILRMYRTPFVVAANKIDRIHGWRVHEGRPFMETFSKQDIQVQQKLDTKVYELVGKLHEEGFESERFDRVTDFASQVSIIPISAITGEGIPELLTMLMGLAQQYLREQLKIEEDSPARGTILEVKEETGLGMTIDAVIYDGILRKDDTIAMMTSKDVISTRIRSLLKPRPLEEMRESRKKFQKVDEVVAAAGIKIVAPGIDDVMAGSPLRVVTDPEKVREEILSEIEDIKIDTDEAGVVVKADTLGSLEAVVKILRDMYVPIKVADIGDVSRRDVVNAGIALQEDRVYGAIIAFNVKVIPSAAQELKNSDIKLFQGNVIYRLMEEYEEWVRGIEEEKKKKWMEAIIKPASIRLIPKLVFRQSKPAIGGVEVLTGVIRQGYPLMNDDGETVGTVESMQDKGENLKSASRGQKVAMAIKDAVYGKTIHEGDTLYVDIPENHYHILKEQLSGDLTDEELDLMDKIAEIKRKKNPDWGMKAPF,soluble
9,RSKYNAKKVVIDNIKFDSKAEAAYYQQLKLLKMSGEVVSFDLQPEFVLQESFRKNGKLYRAIKYKADFLVRYSDGHEELIDIKGMLTKEFRIKQKLFELRYMQSIKCLKLKGRNFVEV,not soluble
10,MGSDKIHHHHHHMKDILVHIDDSERCSARLDIAIGLAKTFGARLTGLFARTESHRPSAVAHKASDQLTQARDAAKEAFTKACASAGITSRWWQLAHGEPGHVVSETMFCARYADLVVMGQTEPKSKIVPEEMVEHVILHCGRPVLVVPHTGSFPSVGERMALAWNAGKEAVRALNDAKPLMLKAKSVTVLSLRGPADDGSNAMGEVPQVDVLDHLAACGITASAERLAGEHIGKMDMLLSRLCDLGADLVVMGAHGHYGLSLKRGTGTRYVLAHMTVPVLMSN,not soluble
11,MVSVDPLATERWRSIRRLTDRDSAYKVPWFVPGPENFEALQNTKILVIGAGGLGCELLKNLALSGFRTIEVIDMDTIDVSNLNRQFLFRESDVGKSKAEVAAAFVQQRVVGCQVTAHNCRIEDKGQEFYRKFSIIICGLDSIPARRWINGMLCDLVLEMADGKPDENTIIPMIDGGTEGFKGNARVIYPKFTACIDCTLDLYPPQVNFPLCTIAHTPRLPEHCIEYIKVVVWPEEKPFEGVSLDADDPIHVEWVLERASLRAEKYNIRGVDRRLTSGVLKRIIPAVASTNAVIAASCALEALKLATNIAKPIDNYLNFTQIHGAYTSVVSMMKDDNCLTCSGGRLPFEVSPSSTLESLIIRLSERFHLKHPTLATSTRKLYCISSFMPQFEQESKENLHTSMKDLVSDGEEILVSDEALSRALTLRIQLI,not soluble
12,MNIIKANVAAPDARVAITIARFNQFINDSLLDGAVDALTRIGQVKDDNITVVWVPGAYELPLATEALAKSGKYDAVVALGTVIRGGTAHFEYVAGGASNGLASVAQDSGVPVAFGVLTTESIEQAIERAGTKAGNKGAEAALTALEMINVLKAIKA,not soluble
13,IAPTAQKLSKIYGVRSSIIIGQAALDSHFGSTLLASKYHNLFSIEASPGQGAVRLKSHEYKNGRWQEVTNRYLVYESWKESLYDYMAILHGNKIWDKALYTTMMTSSGYKTVARALQAAGFNSDPNYADKLIAVIEENNLTDYDK,not soluble
14,MRALPIADDVAGVIFALNGGDLGEDTGCVYYFAPDTLNWESLEVGYSEFLQWALSGDLDTFYENVRWQQWREDVIKLSATEAFTFYPFLWVQSEEARTRKVISLTELWEMQYQMKETFTQLEHHHHHH,not soluble
15,MSQANANFLDNSKVSANKTAESGQLKEFRTPPHNLAIEQAVLAALMTVAESFEQVNDLLKENDFYATRHKYIFRAIEKLAQENSPYDAVLVNDWLLKQNLLDAIGGEEYLMQLMADSPSSFYNLETYASKIKEFSTLRSMIKVSSDILQNAYDTKGRPVSEILDLAETSIFSLAEQHNNNKKDAGPKSISSVTADVISKLDELSKLDGNITGLTTGFLELDNKTYGMQSGDMIIVAARPSMGKTTFAMNLVESVLFNCNLPALVFSMEMPADSIAMRLISSYGKVHQGHLRSGKLDGDEWSKVTGTILQLQEKHLYIDDSSALPPTELRARARRIAKQHGGKLGCIMIDYLQLMKVPGMGDNRVGEIGEISRSLKALAKEMDCPVIALSQLNRSLENRPNKRPVMSDLRESGAIEQDADLIMFIYRDEVYNKESKEAGTAEIIIGKQRNGPIGTVRLAFEGQYTRFSNLSPEYYSQYDDEE,not soluble
16,MGSDKIHHHHHHMSHLLKPKPNLLLIDDDEDVLDACRQLFNLSGYQVRATNSPQKALEALSRDWDGVVISDIYMPAMHGLDLLAAVHHIDPQIPVIMITGHADIPLAVKAVKQGAADFIEKPLDPPTFLALVKKAATQRHQLIGQRQNIQDSLAGQLLGSSAQINDLREQLGQLALTDRDVMLEGPRGVGRNTLAALLHKLGPRAEGPLQQLECALVESPEKLQQAVDASRGGTLILRELEHLPTDSQRWLASFLLDQERRGNKEVRTIAILESQPETLVQEQTLTPECFYYFSQVRLRLPALCERPSDIVPLFMAFLKESCRRLSRKMPTVENRYLDNLKQHSWPGNVRELRNVAELYAVGIVKLANVQRIAAAPSVKGPLDELVDDYEKRLIEDALFLFSGRVSEAADYLNVPRKKLYLRMKKYGLDKECFKPVKPGRG,not soluble
17,MGSSHHHHHHSSGLVPRGSHMVTGKAFPYVVVTGIAMTTALATDAETTWKLLLDRQSGIRTLDDPFVEEFDLPVRIGGHLLEEFDHQLTRIELRRMGYLQRMSTVLSRRLWENAGSPEVDTNRLMVSIGTGLGSAEELVFSYDDMRARGMKAVSPLTVQKYMPNGAAAAVGLERHAKAGVMTPVSACASGAEAIARAWQQIVLGEADAAICGGVETRIEAVPIAGFAQMRIVMSTNNDDPAGACRPFDRDRDGFVFGEGGALLLIETEEHAKARGANILARIMGASITSDGFHMVAPDPNGERAGHAITRAIQLAGLAPGDIDHVNAHATGTQVGDLAEGRAINNALGGNRPAVYAPKSALGHSVGAVGAVESILTVLALRDQVIPPTLNLVNLDPEIDLDVVAGEPRPGNYRYAINNSFGFGGHNVAIAFGRY,soluble
18,MTVPDAKRLKDLELENSRLKKLLAESLLDIGALKVVTRGKGEPGSGAGGQEMQAQTDISERRACQLFRLSRSVLCHQPRTSVQNTELQAQLVELARASALWLSPPAHSAAACWCADQLQADLPAILSRRLDGEAAEAPPQGRGGVRMPEPAERTELGLVDGFRLRRAQHWATDQMPDGGR,not soluble
